Laboratory results published in patent publication US20240010673A1 (ARIZONA BOARD OF REGENTS ON BEHALF OF THE UNIVERSITY OF …, published 2024).

Target: the molecule itself
Experiment: cell-based or functional assay

B1: P-C24-P (other)
chain: MGSGSGSAPQMLRELQETNAALQDVRELLRQQVKEITFLKNTVMESDASGASYRDPMGAGAGAGPEGAGAGAGPEGAGAGAGPEGAGAGAGPEGAGAGAGPEGAGAGAGPEGAGAGAGPEGAGAGAGPEGAGAGAGPEGAGAGAGPEGARMPTSYRDPMGAGAGAGPEGAGAGAGPEGAGAGAGPEGAGAGAGPEGAGAGAGPEGAGAGAGPEGAGAGAGPEGAGAGAGPEGAGAGAGPEGAGAGAGPEGARMPTSYRDPMGAGAGAGPEGAGAGAGPEGAGAGAGPEGAGAGAGPEGARMPEFAPQMLRELQETNAALQDVRELLRQQVKEITFLKNTVMESDASGKLAAALEHHHHHH
With B1 the “half-life of P coiled-coil cross-linked hydrogel in bioerosion test at 25 C” value was about 2.6 h.
